This data set has as its target T1, RH2, His-TF-RH2 (Medicago truncatula, UniProt A0A072TSA4 1-207).
T1 sequence: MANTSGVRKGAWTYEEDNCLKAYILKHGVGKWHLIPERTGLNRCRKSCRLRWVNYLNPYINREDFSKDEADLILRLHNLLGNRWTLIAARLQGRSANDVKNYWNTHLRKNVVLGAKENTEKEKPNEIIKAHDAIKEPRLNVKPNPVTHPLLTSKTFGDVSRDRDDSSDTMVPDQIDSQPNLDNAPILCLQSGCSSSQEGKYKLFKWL
The data set can be described thus: EMSA. In general terms: A gel shift assay detects complexes by their altered migration in electrophoresis.

B1: MtANS probe (dsDNA)
DNA 1: CTATATATAAGAAGCTAGCTGCATACAACCATTTATTCACGTTTTGTGCTGTGCAATCA
DNA 2: TGATTGCACAGCACAAAACGTGAATAAATGGTTGTATGCAGCTAGCTTCTTATATATAG
B1: the binding result is listed as “binds”.

B2: MtCHS probe (dsDNA)
DNA 1: TCAGACTCACATTAAAACTACAGTCTGTTGAGTTGTGCTATTATATTAAGAGAGACAAT
DNA 2: ATTGTCTCTCTTAATATAATAGCACAACTCAACAGACTGTAGTTTTAATGTGAGTCTGA
B2: the binding result is reported as “binds”.
